# B1: Enterococcus faecalis Cas2 (natural protein, UniProt A0A3N3FLR9 1-109, looked up)
# chain: MSYRYMRLLLMFDMPTDTASDRKAYRKFRKFLINEGFIMHQFSVYSKILLNDTANKAMLARLKQNNPQRGLITLLNVTEKQFSRMIYLHGEQDNRVANSDERIVFLGEE
# Biological target: the molecule itself
# Test: crystal structure
protein,measurement,value
B1,stoichiometry N,2

# — PMC5832332 (Nature, 2017)
